# Measured values from patent US11214624.
# Target: microtubule (in vitro reconstituted, taxol-stabilised)
protein,measurement,value
"HA-tagged wild-type p68 (HA-p68), immunopurified from SW480 cell lysates (protein) MSGYSSDRDRGRDRGFGAPRFGGSRAGPLSGKKFGNPGEKLVKKKWNLDELPKFEKNFYQEHPDLARRTAQEVETYRRSKEITVRGHNCPKPVLNFYEANFPANVMDVIARQNFTEPTAIQAQGWPVALSGLDMVGVAQTGSGKTLSYLLPAIVHINHQPFLERGDGPICLVLAPTRELAQQVQQVAAEYCRACRLKSTCIYGGAPKGPQIRDLERGVEICIATPGRLIDFLECGKTNLRRTTYLVLDEADRMLDMGFEPQIRKIVDQIRPDRQTLMWSATWPKEVRQLAEDFLKDYIHINIGALELSANHNILQIVDVCHDVEKDEKLIRLMEEIMSEKENKTIVFVETKRRCDELTRKMRRDGWPAMGIHGDKSQQERDWVLNEFKHGKAPILIATDVASRGLDVEDVKFVINYDYPNSSEDYIHRIGRTARSTKTGTAYTFFTPNNIKQVSDLISVLREANQAINPKLLQLVEDRGSGRSRGRGGMKDDRRDRYSAGKRGGFNTFRDRENYDRGYSSLLKRDFGAKTQNGVYSAANYTNGSFGSNFVSAGIQTSFRTGNPTGTYQNGYDSTQQYGSNVPNMHNGMNQQAYAYPATAAAPMIGYPMPTGYSQ","% of gliding microtubules (n = 50), p68/Ca^2+-CaM, ATP",74.2%
same,"% of gliding microtubules (n = 50), p68/Ca^2+-CaM, no ATP",5.79%
same,ATPase activity (inorganic phosphate hydrolyzed from ATP),the protein demonstrated an even stronger microtubule stimulated ATPase activity
same,"Maximum gliding speed, p68/Ca^2+-CaM, ATP",0.52 µm/min
same,"Maximum gliding speed, p68/Ca^2+-CaM, no ATP",0.01 µm/min
same,"Mean gliding speed, p68/Ca^2+-CaM, ATP",0.16 µm/min
same,"Mean gliding speed, p68/Ca^2+-CaM, no ATP",0 µm/min
